Measurements taken from article PMC8106670.

Key:
[1] = target: ^HisBamA_(N427C) (E. coli) (UniProt P0A940); assay: cross-linking
[2] = target: ^HisBamA_(T809C) (E. coli) (UniProt P0A940); assay: cross-linking

^MBP−76EspP_(T984C) (from UniProt Q7BSW5 948-1300)
percent disulfide-bonded [1]: 40%
percent disulfide-bonded [2]: 50%
